These results are taken from the supplement of paper PMC10065799, “High-throughput profiling of sequence recognition by tyrosine kinases and SH2 domains using bacterial peptide display” (eLife, 2023).

In one data set the target is Jak2 (UniProt O60674). Nature of the data set: phosphorylation enrichment, bacterial display (enrichment ratio); higher = better substrate or ligand; peptides without Tyr show the background.
The next data set addresses Fyn (UniProt P06241). Described as above.
The next data set relates to c-Src. Described as above.
The target of a further data set is MERTK (UniProt Q12866). The data set is described as above.
Sequence of MERTK (Q12866 whole entry, looked up): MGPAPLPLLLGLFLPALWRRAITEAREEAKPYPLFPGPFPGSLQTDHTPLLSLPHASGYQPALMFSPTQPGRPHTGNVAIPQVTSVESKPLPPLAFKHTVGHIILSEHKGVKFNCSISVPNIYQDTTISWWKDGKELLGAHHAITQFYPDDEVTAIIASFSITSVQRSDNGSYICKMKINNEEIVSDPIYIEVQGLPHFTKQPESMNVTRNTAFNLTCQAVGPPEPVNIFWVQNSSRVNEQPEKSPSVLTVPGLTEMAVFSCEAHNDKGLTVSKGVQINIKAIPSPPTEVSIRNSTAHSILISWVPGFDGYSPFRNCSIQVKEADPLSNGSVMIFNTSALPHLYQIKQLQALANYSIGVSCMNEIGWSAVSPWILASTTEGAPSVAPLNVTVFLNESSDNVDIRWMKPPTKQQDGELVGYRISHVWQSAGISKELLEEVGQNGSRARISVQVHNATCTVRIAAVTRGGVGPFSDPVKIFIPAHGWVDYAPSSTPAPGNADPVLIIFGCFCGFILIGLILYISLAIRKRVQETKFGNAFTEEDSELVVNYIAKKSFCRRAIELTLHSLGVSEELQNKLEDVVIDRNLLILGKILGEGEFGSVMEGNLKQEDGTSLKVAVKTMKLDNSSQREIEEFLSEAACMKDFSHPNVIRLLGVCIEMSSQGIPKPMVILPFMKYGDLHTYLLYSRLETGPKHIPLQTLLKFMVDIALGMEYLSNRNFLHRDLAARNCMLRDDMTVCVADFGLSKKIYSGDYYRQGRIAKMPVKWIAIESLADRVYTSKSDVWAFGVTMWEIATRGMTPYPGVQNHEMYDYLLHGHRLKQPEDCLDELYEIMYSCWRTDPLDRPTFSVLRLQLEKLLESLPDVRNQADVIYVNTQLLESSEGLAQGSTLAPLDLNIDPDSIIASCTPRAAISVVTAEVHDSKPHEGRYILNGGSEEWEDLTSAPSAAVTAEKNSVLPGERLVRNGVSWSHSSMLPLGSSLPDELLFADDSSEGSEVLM
For a further data set, the target named is Fes (UniProt P07332). The data set is described as above.
Sequence of Fes (P07332 whole entry, looked up): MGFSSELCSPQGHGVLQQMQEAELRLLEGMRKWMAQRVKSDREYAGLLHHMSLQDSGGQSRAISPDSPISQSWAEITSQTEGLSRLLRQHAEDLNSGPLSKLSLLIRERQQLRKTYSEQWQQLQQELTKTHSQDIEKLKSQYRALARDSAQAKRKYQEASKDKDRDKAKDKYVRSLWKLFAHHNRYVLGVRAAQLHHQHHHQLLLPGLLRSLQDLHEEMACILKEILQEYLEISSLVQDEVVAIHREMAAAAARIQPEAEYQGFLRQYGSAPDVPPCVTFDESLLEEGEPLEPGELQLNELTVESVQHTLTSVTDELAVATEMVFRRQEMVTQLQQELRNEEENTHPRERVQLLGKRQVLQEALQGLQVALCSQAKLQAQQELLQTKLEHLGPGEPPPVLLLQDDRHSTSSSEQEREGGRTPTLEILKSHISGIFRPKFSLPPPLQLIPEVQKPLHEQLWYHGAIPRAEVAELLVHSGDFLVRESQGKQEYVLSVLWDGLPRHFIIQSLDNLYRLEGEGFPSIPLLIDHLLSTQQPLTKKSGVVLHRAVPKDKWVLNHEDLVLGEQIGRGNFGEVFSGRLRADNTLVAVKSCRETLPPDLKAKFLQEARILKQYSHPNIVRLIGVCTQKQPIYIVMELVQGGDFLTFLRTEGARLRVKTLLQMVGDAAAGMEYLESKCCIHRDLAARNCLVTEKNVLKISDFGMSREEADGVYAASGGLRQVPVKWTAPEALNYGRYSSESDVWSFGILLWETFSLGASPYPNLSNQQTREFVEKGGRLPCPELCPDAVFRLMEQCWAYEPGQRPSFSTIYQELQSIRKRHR
A further data set concerns the target EPHB1 (UniProt P54762). Described as above.
Another data set deals with Fer (mouse). The description is as above.
In another data set the target is FGFR1 (UniProt P11362). Described as above.
A further data set has as its target FGFR3 (UniProt P22607). Described as above.
Another data set deals with c-Abl (mouse). The description is as above.
A further data set relates to AncSZ. The description is as above.
A further data set deals with Hck (UniProt P08631). The description is as above.
Sequence of Hck (P08631 whole entry, looked up): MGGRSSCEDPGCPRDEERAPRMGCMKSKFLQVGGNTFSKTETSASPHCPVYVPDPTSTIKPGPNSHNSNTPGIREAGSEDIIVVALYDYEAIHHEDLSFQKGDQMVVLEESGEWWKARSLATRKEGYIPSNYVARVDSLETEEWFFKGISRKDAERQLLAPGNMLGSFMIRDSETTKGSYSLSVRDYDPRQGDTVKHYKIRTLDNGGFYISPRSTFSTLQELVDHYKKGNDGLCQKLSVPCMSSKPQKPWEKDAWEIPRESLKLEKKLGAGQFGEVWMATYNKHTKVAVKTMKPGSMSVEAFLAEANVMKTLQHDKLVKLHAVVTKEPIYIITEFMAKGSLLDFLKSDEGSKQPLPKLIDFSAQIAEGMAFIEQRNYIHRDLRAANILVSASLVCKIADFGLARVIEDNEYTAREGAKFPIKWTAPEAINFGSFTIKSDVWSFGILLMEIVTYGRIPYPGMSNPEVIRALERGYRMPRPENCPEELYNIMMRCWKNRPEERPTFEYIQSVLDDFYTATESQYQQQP
A further data set concerns the target EPHB2 (UniProt P29323). The description is as above.
The next data set concerns the target Grb2 SH2 (UniProt P62993). Nature of the data set: SH2 binding enrichment of the phosphorylated peptide, bacterial display (enrichment ratio); higher = better substrate or ligand; peptides without Tyr show the background.
For the next data set, the target named is SHP2-C SH2. Described as above.
The next data set has as its target c-Src SH2. The description is as above.
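Wherever SH2 binding enrichment of the phosphorylated peptide, bacterial display is given: peptide library displayed on the E. coli surface as eCPX fusions, selected cells deep-sequenced, score is each peptide's frequency after selection divided by its frequency in the input.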
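Wherever phosphorylation enrichment, bacterial display is given: 11-residue human phosphosite peptides and single-mutation variants displayed on the E. coli surface, counted by deep sequencing, each peptide's frequency after selection divided by its frequency in the unselected input library; frequency after pTyr selection over input frequency; kinase dosed for 20-30% of maximal phosphorylation in three min.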

Sequence of Jak2 (O60674 whole entry, looked up): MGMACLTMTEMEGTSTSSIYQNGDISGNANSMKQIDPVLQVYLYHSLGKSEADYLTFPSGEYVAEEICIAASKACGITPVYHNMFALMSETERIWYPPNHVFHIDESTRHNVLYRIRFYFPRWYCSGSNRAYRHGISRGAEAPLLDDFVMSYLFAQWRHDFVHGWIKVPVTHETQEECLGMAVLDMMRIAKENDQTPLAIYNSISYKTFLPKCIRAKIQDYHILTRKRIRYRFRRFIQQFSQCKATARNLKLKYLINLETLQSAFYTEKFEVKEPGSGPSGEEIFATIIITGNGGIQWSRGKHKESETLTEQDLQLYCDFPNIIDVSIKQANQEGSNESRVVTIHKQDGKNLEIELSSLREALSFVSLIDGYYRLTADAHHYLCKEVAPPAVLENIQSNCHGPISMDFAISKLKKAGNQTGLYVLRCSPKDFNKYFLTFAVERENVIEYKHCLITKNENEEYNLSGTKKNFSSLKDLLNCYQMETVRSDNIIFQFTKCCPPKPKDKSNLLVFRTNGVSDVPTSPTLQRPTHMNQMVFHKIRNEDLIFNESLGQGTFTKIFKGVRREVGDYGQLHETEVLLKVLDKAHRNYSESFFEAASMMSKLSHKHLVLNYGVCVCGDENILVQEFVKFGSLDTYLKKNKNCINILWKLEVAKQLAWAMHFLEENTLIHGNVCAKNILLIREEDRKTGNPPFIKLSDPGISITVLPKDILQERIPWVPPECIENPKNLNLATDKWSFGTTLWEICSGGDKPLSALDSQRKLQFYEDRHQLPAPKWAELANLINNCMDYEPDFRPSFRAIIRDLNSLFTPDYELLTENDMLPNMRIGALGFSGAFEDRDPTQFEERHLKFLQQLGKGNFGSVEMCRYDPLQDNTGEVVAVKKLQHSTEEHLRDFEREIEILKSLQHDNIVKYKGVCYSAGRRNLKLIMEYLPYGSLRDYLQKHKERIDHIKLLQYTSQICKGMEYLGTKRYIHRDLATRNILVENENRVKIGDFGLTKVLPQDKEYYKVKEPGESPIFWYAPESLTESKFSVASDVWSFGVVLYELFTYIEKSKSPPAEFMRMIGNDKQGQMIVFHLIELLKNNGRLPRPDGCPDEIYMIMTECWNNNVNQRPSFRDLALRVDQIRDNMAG
Sequence of FGFR3 (P22607 whole entry, looked up): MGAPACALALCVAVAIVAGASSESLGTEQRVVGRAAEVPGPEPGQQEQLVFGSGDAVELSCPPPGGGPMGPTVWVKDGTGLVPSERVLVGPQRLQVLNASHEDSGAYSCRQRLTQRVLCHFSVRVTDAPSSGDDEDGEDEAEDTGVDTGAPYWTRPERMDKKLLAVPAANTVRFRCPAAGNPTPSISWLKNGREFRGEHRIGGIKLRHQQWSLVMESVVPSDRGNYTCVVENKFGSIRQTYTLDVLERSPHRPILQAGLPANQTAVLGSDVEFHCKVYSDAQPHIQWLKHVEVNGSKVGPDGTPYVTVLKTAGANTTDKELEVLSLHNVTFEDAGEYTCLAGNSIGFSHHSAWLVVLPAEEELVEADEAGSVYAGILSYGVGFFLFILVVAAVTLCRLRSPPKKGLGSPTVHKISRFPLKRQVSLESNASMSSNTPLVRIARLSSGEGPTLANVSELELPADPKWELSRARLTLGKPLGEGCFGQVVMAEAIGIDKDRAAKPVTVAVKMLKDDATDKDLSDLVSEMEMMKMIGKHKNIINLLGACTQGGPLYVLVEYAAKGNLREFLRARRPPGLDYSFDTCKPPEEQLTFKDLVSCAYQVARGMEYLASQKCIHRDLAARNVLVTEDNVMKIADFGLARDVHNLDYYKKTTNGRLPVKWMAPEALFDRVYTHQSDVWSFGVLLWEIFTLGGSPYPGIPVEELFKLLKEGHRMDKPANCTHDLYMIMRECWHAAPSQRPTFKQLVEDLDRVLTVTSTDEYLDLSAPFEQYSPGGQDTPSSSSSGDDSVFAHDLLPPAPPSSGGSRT
Sequence of Fyn (P06241 whole entry, looked up): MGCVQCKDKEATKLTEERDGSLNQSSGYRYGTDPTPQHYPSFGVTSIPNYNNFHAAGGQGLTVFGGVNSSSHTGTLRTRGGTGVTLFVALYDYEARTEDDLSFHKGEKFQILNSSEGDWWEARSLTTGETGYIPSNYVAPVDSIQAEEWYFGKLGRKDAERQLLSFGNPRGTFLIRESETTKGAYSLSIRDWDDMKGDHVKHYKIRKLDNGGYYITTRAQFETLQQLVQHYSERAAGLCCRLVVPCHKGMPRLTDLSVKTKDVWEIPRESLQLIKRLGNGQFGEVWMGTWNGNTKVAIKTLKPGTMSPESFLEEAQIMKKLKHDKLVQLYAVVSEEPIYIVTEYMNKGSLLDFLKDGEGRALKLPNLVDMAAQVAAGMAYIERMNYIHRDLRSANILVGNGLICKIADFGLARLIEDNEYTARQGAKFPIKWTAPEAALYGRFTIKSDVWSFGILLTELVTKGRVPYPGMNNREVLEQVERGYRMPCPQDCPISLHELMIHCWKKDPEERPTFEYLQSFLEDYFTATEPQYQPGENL
Sequence of Grb2 SH2 (P62993 whole entry, looked up): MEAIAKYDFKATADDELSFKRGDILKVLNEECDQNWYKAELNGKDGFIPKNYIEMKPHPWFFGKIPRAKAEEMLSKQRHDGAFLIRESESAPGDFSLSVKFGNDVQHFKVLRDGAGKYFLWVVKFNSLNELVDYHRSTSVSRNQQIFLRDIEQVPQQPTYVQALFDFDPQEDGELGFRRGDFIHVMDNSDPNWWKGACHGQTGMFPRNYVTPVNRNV

ENQEIYRKAFD [KPNA1_Y493_Q494R]: the phosphorylation enrichment in the data set with Jak2 amounted to 1.3; with Fyn, 0.431; with c-Src, 0.451; with MERTK it was 0.393; in the data set with Fes it was 1.13; with EPHB1, 0.618. Also, the phosphorylation enrichment was 0.55 with Fer (mouse); 0.537 in the data set with FGFR1; 0.627 in the data set with FGFR3; 0.812 with c-Abl (mouse); 0.883 with AncSZ; 0.499 with Hck. Further, the phosphorylation enrichment with EPHB2 amounted to 0.798. Moreover, the SH2 binding enrichment was determined as 0.814 in the data set with Grb2 SH2, 0.719 in the data set with SHP2-C SH2 and 0.397 with c-Src SH2.
Turning to FLNSSYINIST [IL23R_Y178_T175N_YF], the phosphorylation enrichment came out at 0.663 in the data set with Jak2; 0.438 in the data set with Fyn; 0.317 in the data set on c-Src; 0.415 with MERTK; 0.746 in the data set with Fes; 0.338 with EPHB1. Also, the phosphorylation enrichment worked out at 0.367 in the data set with Fer (mouse); 0.464 with FGFR1; 0.676 in the data set with FGFR3; 0.383 in the data set with c-Abl (mouse); 0.652 with AncSZ; 0.471 with Hck. The phosphorylation enrichment with EPHB2 turned out to be 0.368. Moreover, the figures for the SH2 binding enrichment in the data set with Grb2 SH2, with SHP2-C SH2 and in the data set with c-Src SH2 were 25, 1.69 and 4.35, respectively.
As for TTKGAYSLSVR [YES1_Y194_I198V], the phosphorylation enrichment with Jak2 came to 0.511; with Fyn it was 0.317; with c-Src, 0.376; with MERTK, 0.364; with Fes, 0.73; in the data set with EPHB1, 0.404. For the same sequence, the phosphorylation enrichment was determined as 0.403 in the data set on Fer (mouse); 0.405 with FGFR1; 0.548 with FGFR3; 0.517 in the data set on c-Abl (mouse); 0.894 with AncSZ; 0.483 with Hck. The phosphorylation enrichment with EPHB2 is 0.5. Besides, the SH2 binding enrichment with Grb2 SH2 turned out to be 0.768; with SHP2-C SH2, 0.558; in the data set with c-Src SH2, 0.402.
Consider ALTDNYMYLVI [HAGH_Y61], for which the phosphorylation enrichment is 2.46 in the data set with Jak2; 0.848 in the data set with Fyn; 1.03 in the data set on c-Src; 3.34 in the data set with MERTK; 1.49 in the data set with Fes; 9.55 with EPHB1. Further, the phosphorylation enrichment in the data set on Fer (mouse) stood at 3.5; in the data set with FGFR1, 8.82; in the data set with FGFR3, 6.43; with c-Abl (mouse) it was 0.813; with AncSZ, 1.43; with Hck, 1.34. Further, in the data set with EPHB2, the phosphorylation enrichment came to 8.35. The results for the SH2 binding enrichment with Grb2 SH2, with SHP2-C SH2 and with c-Src SH2 were 0.819, 0.544 and 0.437, respectively.
With ENGPYYTSYPP [GDAP2_Y488], the phosphorylation enrichment worked out at 0.703 in the data set with Jak2; 3.58 with Fyn; 3.52 with c-Src; 5.54 in the data set with MERTK; 0.83 with Fes; 0.658 in the data set with EPHB1. Also, the phosphorylation enrichment is 0.707 in the data set with Fer (mouse); 2.7 with FGFR1; 1.89 with FGFR3; 1.33 in the data set with c-Abl (mouse); 1.31 with AncSZ; 2.14 with Hck. The phosphorylation enrichment with EPHB2 is 1. Further, the SH2 binding enrichment with Grb2 SH2 came out at 0.761; in the data set with SHP2-C SH2, 0.708; with c-Src SH2, 0.763.
With VSFDEYRFRSV [CFTR_Y515_YF], the phosphorylation enrichment with Jak2 worked out at 1.14; with Fyn, 0.489; with c-Src it was 0.614; with MERTK it was 0.6; with Fes it was 1.22; with EPHB1, 0.519. For the same sequence, the phosphorylation enrichment worked out at 0.567 with Fer (mouse); 0.515 with FGFR1; 0.699 with FGFR3; 0.862 in the data set with c-Abl (mouse); 0.972 in the data set on AncSZ; 0.574 in the data set with Hck. The phosphorylation enrichment with EPHB2 amounted to 0.591. Moreover, the SH2 binding enrichment in the data set with Grb2 SH2 was determined as 0.776; in the data set with SHP2-C SH2, 0.55; with c-Src SH2 it was 0.477.
Consider ASGKFYAMKIL [AKT3_Y174_YF], for which the phosphorylation enrichment in the data set with Jak2 turned out to be 0.801; with Fyn, 0.529; in the data set on c-Src, 0.426; with MERTK, 0.509; in the data set with Fes, 1.07; in the data set with EPHB1, 0.519. Also, the phosphorylation enrichment worked out at 0.543 in the data set with Fer (mouse); 0.609 in the data set with FGFR1; 0.589 in the data set with FGFR3; 0.675 in the data set on c-Abl (mouse); 0.858 with AncSZ; 0.53 with Hck. For the same sequence, the phosphorylation enrichment with EPHB2 was 0.625. Besides, the SH2 binding enrichment with Grb2 SH2 was 1; with SHP2-C SH2, 1.05; with c-Src SH2 it was 0.763.
Take RFGKVYKAHLF [ROR2_Y488_G490A]: the phosphorylation enrichment with Jak2 came out at 0.39; with Fyn, 0.57; in the data set with c-Src, 0.886; with MERTK it was 0.509; with Fes it was 0.604; with EPHB1, 0.476. Also, the phosphorylation enrichment came to 0.846 with Fer (mouse); 0.72 with FGFR1; 0.733 in the data set with FGFR3; 0.594 in the data set with c-Abl (mouse); 0.622 in the data set on AncSZ; 0.645 in the data set with Hck. Further, the phosphorylation enrichment with EPHB2 is 0.583. Also, the SH2 binding enrichment came out at 1.03 with Grb2 SH2, 0.668 with SHP2-C SH2 and 0.613 with c-Src SH2.
